In US20190194338A1 (Seagen, published 2019):

Columns and labels:
[1] = target: T1, FcγRIIIa (hCD16) on transfected CHO cells (human, UniProt P08637 17-254); test: competition with labelled h00 on CHO cells with FcγRIIIa
T1 construct: whole, on cells; Also expressed on Jurkat effector cells in the signalling assay; also called human FcRIIIa

[2] = target: T2, human BCMA expressed on cells (NCI-H929, U266, JJN3, 293:BCMA) (human, UniProt Q02223 1-184); test: binding to JJN3 cells
T2 construct: Endogenous BCMA on myeloma lines or full-length BCMA clone in HEK 293 cells; also called B-cell maturation antigen; CD269
T2 sequence: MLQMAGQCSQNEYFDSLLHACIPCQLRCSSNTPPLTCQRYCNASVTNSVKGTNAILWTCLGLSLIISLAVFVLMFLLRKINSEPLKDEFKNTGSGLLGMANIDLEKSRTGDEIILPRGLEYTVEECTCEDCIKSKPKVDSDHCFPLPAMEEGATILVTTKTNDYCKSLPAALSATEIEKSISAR

[3] = target: T2, human BCMA expressed on cells …; test: binding to U266 cells

T1 sequence (P08637 17-254): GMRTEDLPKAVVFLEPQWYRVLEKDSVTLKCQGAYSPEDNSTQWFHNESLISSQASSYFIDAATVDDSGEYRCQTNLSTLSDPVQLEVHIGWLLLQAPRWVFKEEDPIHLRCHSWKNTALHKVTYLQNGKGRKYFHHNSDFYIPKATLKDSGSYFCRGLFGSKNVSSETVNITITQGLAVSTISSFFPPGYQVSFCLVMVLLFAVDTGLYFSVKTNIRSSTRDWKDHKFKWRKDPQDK

B1: cSG16.17 wild-type (antibody)
heavy: not shown
light: DIQMTQSPASLSASLGETVSIECLASEDISDDLAWYQQKSGKSPQVLVYTTSRLQDGVPSRFSGSGSGTRFSLKIIVMQPEDEADYFCQQTYKFPPTFGAGTRLDLKR
notes: domain: wild-type human IgG1 heavy chain constant domains; Rat VH and VL fused to human IgG1 and kappa constants; also called chimeric SG16.17; cSG16.17 G1 WT; not shown: human kappa light chain constant domain
In the case of B1, the binding result [1] is reported as “binds”, the Kd [2] is reported as about 15 nM and the Kd [3] is reported as about 10 nM.

B2: cSG16.17 mutant (antibody, name in EU numbering)
heavy: QVNLLQSRAALVKPGASVKLSCEASGYTFTDYYIHWVKQSHGKSLEWIGYINPNSGYTKYNENFKTKATMTADKSTNTAYVELSRLTSEDSATYFCTRYMWERVTGFFDFWGPGTKVTVSSASTKGPSVFPLAPSSKSTSGGTAALGCLVKDYFPEPVTVSWNSGALTSGVHTFPAVLQSSGLYSLSSVVTVPSSSLGTQTYICNVNHKPSNTKVDKKVEPKSCDKTHTCPPCPAPELLGGPDVFLFPPKPKDTLMISRTPEVTCVVVDVSHEDPEVKFNWYVDGVEVHNAKTKPREEQYNSTYRVVSVLTVLHQDWLNGKEYKCKVSNKALPLPEEKTISKAKGQPREPQVYTLPPSRDELTKNQVSLTCLVKGFYPSDIAVEWESNGQPENNYKTTPPVLDSDGSFFLYSKLTVDKSRWQQGNVFSCSVMHEALHNHYTQKSLSLSPGK
light: DIQMTQSPASLSASLGETVSIECLASEDISDDLAWYQQKSGKSPQVLVYTTSRLQDGVPSRFSGSGSGTRFSLKIIVMQPEDEADYFCQQTYKFPPTFGAGTRLDLKR
notes: domain: human IgG1 heavy chain constant domains; Positions of the Fc mutations are EU numbers, not positions on the UniProt entry; also called cSG16.17 S239D:A330L:I332E; chimeric SG16.17 IgG1 S239D, A330L, I332E; not shown: human kappa light chain constant domain
B2: binds [1].
